Source: publication PMC7755911 (Scientific Reports, 2020)

Target: SARS-CoV-2 Receptor Binding Domain (RBD) (SARS-CoV-2, UniProt P0DTC2)
Experiment: ELISA
Details: both partners purified

B1: NIH-CoVnb-112 (VHH)
VHH: DVQLQESGGGLVQPGGSLRLSCAASGLTLDYYAIGWFRQAPGKEREGVSCISSSDGSTYYADSVKGRFTTSRDNAKNTVYLQMNSLKPEDTAVYYCAAVPSTYYSGTYYYTCHPGGMDYWGKGTQVTVSS
notes: also called lead nanobody candidate; anti-SARS-CoV-2 RBD nanobody; source: E. coli BL21 (DE3), periplasm by osmotic shock, purified (HisTrap, Superdex 75)
  EC50: 1.11 nM
